Test system: MS2 coat protein
Test: apparent KD of MS2 coat protein; designed switch direction (-1 OFF switch, 1 ON switch): 1; higher = weaker reporter binding
In short: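 RNA switches sharing common flanks were transcribed by stalled E. coli RNA polymerase on Illumina chips. A doubling series of SNAP-549-labelled MS2 coat protein, from 0.7 or 1.5 nM to 3 µM, was applied in Tris-HCl pH 7.5 buffer with KCl, MgCl2, BSA, DTT, tRNA and Tween-20. Each step lasted 0.8–1.5 h at the bottom of the series and 10–20 min at the top. Normalised cluster fluorescence was curve-fitted, giving apparent KD as the per-design median over clusters.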

[1] = input ligand: microRNA oligo, concentration not stated
[2] = Eterna round: R95, input ligand: FMN 200 uM
[3] = Eterna round: R95, input ligand: microRNA oligo, concentration not stated
[4] = Eterna round: R95, input ligand: none

| Sequence | apparent KD of MS2 coat protein (input ligand: FMN 200 uM) | apparent KD of MS2 coat protein [1] | apparent KD of MS2 coat protein (input ligand: none) | apparent KD of MS2 coat protein [2] | apparent KD of MS2 coat protein [3] | apparent KD of MS2 coat protein [4] |
| --- | --- | --- | --- | --- | --- | --- |
| GCGGUAACUCACAUGAGGAUCACCCAUGUUCCGGAAACGGCACAGGAUAUCUGUCCGAAAAGGUCAGAGAAGGGUGAAAUCCGC [Fiskers NG3ss - 91] (Eterna round: R96, puzzle: Same State NG 3) | 641 nM | 290 nM | 115 nM | – | – | – |
| UGUUGUAUUACAGGAUAUCUAUGAUUUUUAUCUAGAGAAGGGUAUUCACAUGAGGAUCACCCAUGUAUAUACGAGGAAGUUGUG [JMF's solution 69] (Eterna round: R96, puzzle: Same State NG 1) | – | 25.1 nM | – | – | – | – |
| UUAAGCCGCGGGCAGGAUAUGUAUUAAAAUACAUGAGGAUCACCCAUGUGCAGGUGUAACACCUGACAGAAGGGCCAAUCGCGGC [Soteed - 5] (puzzle: Same State 2) | – | – | – | 21.2 nM | 116 nM | 229 nM |
| GGUCGGACUCACAUGAGGAUCACCCAUGUUGGCGAAAGCCGGCAGGAUAUCUGUCCGAAAAGGUCAGAGAAGGGCUAACCGACC [Fiskers NG3ss - 60] (Eterna round: R96, puzzle: Same State NG 3) | 65.7 nM | 186 nM | 188 nM | – | – | – |
| AUGAUUUAUGCAGGAUAUGAUUAACAUGAGGAUCACCCAUGUGGUGUUGUGAGUAAGGAGAGUGAUCAGAAGGGCAUUUUUUUU [JMF's solution 71] (Eterna round: R96, puzzle: Same State NG 2) | 1170 nM | 402 nM | 506 nM | – | – | – |
| GGUCCAGCCUGAGCUGGACAAAAGCAUGUACAUGAGGAUCACCCAUGUCAUGUACAAGCUUUUUGCUCGUCUUAAAG [Mat - hsa-mir-208a - 85] (puzzle: Sensor for hsa-mir-208a) | – | – | – | 195 nM | 18.1 nM | 367 nM |
| AAAGUGCCGACGAAGGAUAUAGCGGGUGAGACAUGAGGAUCACCCAUGUAUGCAGAACUCAUCCUCUAGAAGGUUGAGACGGCUA [Bionlateat] (Eterna round: R96, puzzle: Same State 2) | 151 nM | 31.1 nM | 95.9 nM | – | – | – |
| GGUCGGACUCACAUGAGGAUCACCCAUGUUGGCGAAAGCCGGCAGGAUAUCUGUCCGAAAAGGUCAGAGAAGGGUCAACCGACC [Fiskers NG3ss - 59] (Eterna round: R96, puzzle: Same State NG 3) | 322 nM | 82.4 nM | 267 nM | – | – | – |
| AGUCCAGCCUGAGCUGGACAAAAGCAUGUACAUGAGGAUCACCCAUGUUCAUGUACAAGCUUUUUGCUCGUCUGAAU [Mat - hsa-mir-208a - Mod of JL - 47] (puzzle: Sensor for hsa-mir-208a) | – | – | – | 709 nM | 19.9 nM | 874 nM |
| GGGUAGGAAUUACAGGAUAUAUAGAAGUUGACAUGAGGAUCACCCAUGUAUGGGUUGGGAGGAGGAUAGAAGGGUAUGAGAGGUG [JR_SS2_Sub032] (puzzle: Same State 2) | – | – | – | 125 nM | 123 nM | 113 nM |
| AGUCCAGCCUGAGCUGGACAAAAGCAUGUACAUGAGGAUCACCCAUGUUCGUGUACAAGCUUUUUGCUCGUCUUAAA [Zipper 52 - 5] (puzzle: Sensor for hsa-mir-208a) | – | – | – | 518 nM | 13.5 nM | 725 nM |
| GCGAGCGUACUUGCUACAUGAGGAUCACCCAUGUUCGUUGGACAGGAUAUGGUACCGUUUCGGUACCAGAAGGGUUCACAUGUA [JL SSNG3 3.77] (Eterna round: R96, puzzle: Same State NG 3) | 171 nM | 224 nM | 375 nM | – | – | – |
| GGUGGGUUACUACCCACACAUGAGGAUCACCCAUGUUUUGGGAAGGAUAUGGUACCUAUUUGGUACCAGAAGGUCCUGUUGGUG [SS-NG3-LRO14] (Eterna round: R96, puzzle: Same State NG 3) | 702 nM | 445 nM | 1020 nM | – | – | – |
| GAAAAGACAUGAGGAUCACCCAUGUGGUAGACAGCUAGACGCAAGGAUAUGCAUGUGAUUCUCAUGCAGAAGGUGCUUCUAGGU [Eternabot solution 12] (Eterna round: R96, puzzle: Same State NG 3) | 37.6 nM | 53.3 nM | 68.6 nM | – | – | – |
| UUAUUAUUUACAUGAGGAUCACCCAUGUUUUUAUGUCAGAGAUAGGAUAUAGUUUUCUCGUUUUUCUAGAAGGAUCUUUUUAUU [JR_SSNG3_Sub085] (Eterna round: R96, puzzle: Same State NG 3) | 18.6 nM | 17 nM | 22.8 nM | – | – | – |
| ACUCUCACAGUAGGAUAUGUAGGAUAUGCCUACAUGAGGAUCACCCAUGUAAACAUGGCAGAAGGAUAGAAGGACUUACAUGGG [pwkr ssNG2 2FMN + 1F5.4] (Eterna round: R96, puzzle: Same State NG 2) | 108 nM | 44.1 nM | 196 nM | – | – | – |

| Sequence | apparent KD of MS2 coat protein (input ligand: FMN 200 uM) | apparent KD of MS2 coat protein [1] | apparent KD of MS2 coat protein (input ligand: none) | apparent KD of MS2 coat protein [2] | apparent KD of MS2 coat protein [3] | apparent KD of MS2 coat protein [4] |
| --- | --- | --- | --- | --- | --- | --- |
| AAGAGGUCCGCAGGAUAUACCCGGCCUCGCCGGGUAGAAGGGUGAACCUCAUAACCCACCACACACAUGAGGAUCACCCAUGUA [Enisaon] (Eterna round: R96, puzzle: Same State NG 1) | 494 nM | 1.93 nM | 111 nM | – | – | – |
| UGUUGUAUUACAGGAUAUCUAGUAUUUUUAAUUAGAGAAGGGUAUUCACAUGAGGAUCACCCAUGUAUAUACGAGGAAGUUGUG [JMF's solution 48] (Eterna round: R96, puzzle: Same State NG 1) | – | 34 nM | – | – | – | – |
| UGUUGUAAUACAGGAUAUAUAUUAUUUUUAUUUAUAGAAGGGUAAUCACAUGAGGAUCACCCAUGUAUAUACGAGGAAGAAGAG [JMF's solution 3] (Eterna round: R96, puzzle: Same State NG 1) | – | 139 nM | – | – | – | – |
| GUAAUAAUGUAAGGAUAUACAUGAGGAUUUCUCGUAGAAGGUACAAGACAUGAGGAUCACCCAUGUGUCGCUCCGUAGAGCGUA [Mat - Same State NG 1 - JL mod - D15] (Eterna round: R96, puzzle: Same State NG 1) | 297 nM | 168 nM | 448 nM | – | – | – |
| UGGUACAUGGGAGGAUAUCUCGUGGAGACAUGAGGAUCACCCAUGUAGAUGGCCGGUAACCGGAGAGAGAAGGCCCAUGUACCU [JL SSNG1 3.68] (Eterna round: R96, puzzle: Same State NG 2) | 66.9 nM | 65.4 nM | 159 nM | – | – | – |
| UGGAUCUAGGCUUGCCUGGGUCCUUCAAGACAUGAGGAUCACCCAUGUGUUUUUUUUUUGCUUUUUGUUUGUCUUGA [JL A Humble Attempt mod 2] (puzzle: Sensor for hsa-mir-208a) | – | – | – | 50.8 nM | 15 nM | 23.1 nM |
| GUGGUCAGACAUGAGGAUCACCCAUGUGGAAUAAAUAACAGACAGGAUAUCAAAUAUAGGAUAUAUGAGAAGGGUCGAUUGGUG (Eterna round: R96, puzzle: Same State NG 3) | – | 81 nM | – | – | – | – |
| AGAGGAGGAGCAGGAUAUGCGAAGAAGAACGUGGUAGAAGGGCUCAUGCGAUGACAUGAGGAUCACCCAUGUACCUCGCGAGGA [AK SSNG1-V2-9] (Eterna round: R96, puzzle: Same State NG 1) | 414 nM | 130 nM | 186 nM | – | – | – |
| CAAGCUUGGGUCGUCCCGCUCGUCUUCAAACAUGAGGAUCACCCAUGUAUACUCUUCACAUCAAUUCUAUCUCUUAA [Ralasoerin] (puzzle: Sensor for hsa-mir-208a) | – | – | – | 255 nM | 22.8 nM | 289 nM |
| UGAAUAUUUACAGGAUAUGAGUUGUAUAGUGGGUCAGAAGGGUGGGUGUUUUGCACGGUGUGUUACAUGAGGAUCACCCAUGUU [SameState NG1 #27] (Eterna round: R96, puzzle: Same State NG 1) | 129 nM | 74.5 nM | 146 nM | – | – | – |
| GUGCGAGUGCCACAGGAUAUACGUGGAUCGACAUGAGGAUCACCCAUGUAUAUCCUAAUAAUUGCGUAGAAGGGUGGUCAGUCGG [Inzage] (puzzle: Same State 2) | – | – | – | 136 nM | 74.8 nM | 105 nM |
| GACUGCGUUAUGAAGGAUAUCCGCGUCUGGACAUGAGGAUCACCCAUGUAUACUUGGAUCGUGCAGGAGAAGGUCAAGGGUGAUU [JR_SS002_Sub1210] (Eterna round: R96, puzzle: Same State 2) | 507 nM | 163 nM | 243 nM | – | – | – |
| CGUCCGGCCUGUGCUGGCCGGCGGCUUGUACAUGAGGAUCACCCAUGUUCUUGUGCUGGCUUUUUGCUCGUCUUGUG [salish99_mir208a_022] (puzzle: Sensor for hsa-mir-208a) | – | – | – | 32.2 nM | 16.3 nM | 39.5 nM |
| UGGCUCAGACGAGGAUAUAUGUGAUCACAUGAGGAUCACCCAUGUCUCGAGCUUCGGCUCGAGACAUAGAAGGCGUCUGAGCCU [SSNG2/3-A3] (Eterna round: R96, puzzle: Same State NG 2) | 512 nM | 12.3 nM | 17.8 nM | – | – | – |
| GUUACAUGAGGAUCACCCAUGUAUGUGUGGGAGUAAGUGUCUUAGGAUAUCUGUUAUUUAAGUUAAGAGAAGGAAGAUUGUUGU [JMF's solution 42] (Eterna round: R96, puzzle: Same State NG 3) | 92.8 nM | 45.6 nM | 82.4 nM | – | – | – |

Reference: the supplement of paper PMC9170038
